Experimental data published in patent publication KR20240010698A.

Key:
[1] = target: FITC-labelled recombinant human HER2 (human) (UniProt P04626); assay: nanoparticle flow cytometry of CDV incubated with FITC-HER2
[2] = target: FITC-labelled recombinant human HER2 (human) (UniProt P04626); assay: flow cytometry, CDV on aldehyde/sulfate latex beads, FITC-HER2 titrated

scTTZ-gLAMP1 (trastuzumab scFv fused to glycosylated LAMP1) on cell-derived vesicles
percent of CDV with FITC fluorescence [1]: 44.5%
EC50 [2]: 0.94 µg/mL
